What all share (settings): nanopore translocation; background mutations not given
Data set [1] deals with T1, Dda 1993 C114A C114A (Enterobacteria phage T4) (UniProt P32270).
T1 sequence: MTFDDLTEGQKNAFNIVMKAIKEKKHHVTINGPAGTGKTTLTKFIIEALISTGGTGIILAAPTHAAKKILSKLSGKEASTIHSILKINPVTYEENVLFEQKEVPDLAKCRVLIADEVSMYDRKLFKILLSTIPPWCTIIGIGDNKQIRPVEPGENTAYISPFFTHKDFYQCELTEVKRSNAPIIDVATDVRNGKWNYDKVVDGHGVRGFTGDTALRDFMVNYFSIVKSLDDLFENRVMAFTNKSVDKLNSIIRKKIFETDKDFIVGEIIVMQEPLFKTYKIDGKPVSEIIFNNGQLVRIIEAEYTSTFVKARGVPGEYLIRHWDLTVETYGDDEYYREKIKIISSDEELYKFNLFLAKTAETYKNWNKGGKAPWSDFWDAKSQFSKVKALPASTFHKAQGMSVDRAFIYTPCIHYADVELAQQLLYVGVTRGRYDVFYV

Data set [2] has as its target T2, Dda 1993 C114V C114V (Enterobacteria phage T4) (UniProt P32270).
T2 sequence: T1 sequence with A114V

Data set [3] deals with T3, Dda 1993 C114T C114T (Enterobacteria phage T4) (UniProt P32270).
T3 sequence: T1 sequence with A114T

In data set [4] the target is T4, Dda 1993 C114P C114P (Enterobacteria phage T4) (UniProt P32270).
T4 sequence: T1 sequence with A114P

Data set [5] addresses T5, Dda 1993 C114L C114L (Enterobacteria phage T4) (UniProt P32270).
T5 sequence: T1 sequence with A114L

This is an account of results in patent publication US20250382602.

Numbering of substitutions follows the chain as printed.

Take “barcoded 3.6 kb DNA analyte ligated to sequencing Y adaptor”: the activity (bps speed delta vs control) was 13.8 in data set [1]; 26 in data set [2]; -35.7 in data set [3]; 84.5 in data set [4]; -42 in data set [5].
